From US20240200044, “EVOLUTION OF TALENS” (President and Fellows of Harvard College, published 2024)

Molecular target: T1, CBX8-directed TALE-omega (synthetic construct, UniProt Q56830 SEQ:41-724)
T1 chain: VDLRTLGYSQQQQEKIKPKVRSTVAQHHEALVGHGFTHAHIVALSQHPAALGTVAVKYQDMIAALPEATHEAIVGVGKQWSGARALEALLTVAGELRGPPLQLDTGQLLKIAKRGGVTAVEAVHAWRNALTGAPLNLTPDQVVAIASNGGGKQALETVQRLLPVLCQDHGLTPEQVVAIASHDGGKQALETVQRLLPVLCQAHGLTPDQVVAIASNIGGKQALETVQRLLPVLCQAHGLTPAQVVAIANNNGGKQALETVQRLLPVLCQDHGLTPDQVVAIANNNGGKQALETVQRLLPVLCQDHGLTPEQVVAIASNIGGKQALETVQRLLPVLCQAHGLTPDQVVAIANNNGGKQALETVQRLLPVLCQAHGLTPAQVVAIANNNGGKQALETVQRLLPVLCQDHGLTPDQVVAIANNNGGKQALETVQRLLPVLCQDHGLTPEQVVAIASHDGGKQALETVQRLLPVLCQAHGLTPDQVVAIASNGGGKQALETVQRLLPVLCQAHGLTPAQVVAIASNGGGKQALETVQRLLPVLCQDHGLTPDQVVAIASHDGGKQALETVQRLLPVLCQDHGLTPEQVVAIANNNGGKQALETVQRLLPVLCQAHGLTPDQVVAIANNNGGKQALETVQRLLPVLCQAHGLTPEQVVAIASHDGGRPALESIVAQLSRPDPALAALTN
Test: one_hybrid; luciferase induction, 18 aa C-terminus plus GGGGS linker
Conditions: tags: N-terminal FLAG-NLS, C-terminal RNAP omega
Procedure: This system was used to continuously evolve TALE proteins with novel properties. A series of C-terminal fusions between a previously reported TALE array targeting CBX8 (right half-site TALE)¹⁸, and the RNAP w subunit were tested. […] The sequence specificity of the system was verified using an off-target sequence in the luciferase assay, and performed on- and off-target colorimetric plaque assays using TALE-ω SP and host cells harboring the AP containing the target CBX8 sequence. Similar to the findings with zinc fingers, both luciferase expression and phage propagation were dependent on the presence of the cognate TALE binding site (FIG. 10B). Finally, PACE was performed for 24 h on the cognate AP to optimize the SP backbone.
Luciferase assay. pOH plasmids were transformed by electroporation into S1030 cells, and grown overnight at 37° C. on LB-agar plates supplemented with 50 μg/mL carbenicillin. Single colonies were used to inoculate cultures which were allowed to grow for ˜12 h at 37° C. in DRM supplemented with 50 μg/mL carbenicillin in a shaker. Cultures were diluted to an OD₆₀₀ of ˜0.3 and allowed to grow for an additional 2 h at 37° C. […] 200 μL aliquots of each sample were then transferred to 96-well opaque plates and luminescence and OD₆₀₀ readings were taken using a Tecan Infinite Pro instrument. Luminescence data were normalized to cell density by dividing by the OD₆₀₀ value.

B1: CBX8 5'T site (dsDNA)
DNA 1: TTCAGGAGGGCTTCGGC
DNA 2: GCCGAAGCCCTCCTGAA
For B1, the binding signal was over 10 fold.
